± gives the standard deviation of the averaged measurements.

The subject of this series is Saccharomyces cerevisiae. The series can be described thus: protein stability index of tFT-peptide fusion (C-terminal peptide) (PSI (0-1 scale)); higher = more stable (slower turnover). The following applies: temperature: 30 C. The method, then:
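MPS profiling in S. cerevisiae of the yeast C-terminome library: the last 12 aa of each annotated ORF are fused to the C-terminus of a sfGFP-mCherry timer, after a GGGS linker. Cells are FACS-sorted into 8 mCherry/sfGFP bins and deep-sequenced. PSI runs from 0 (unstable) to 1 (stable); wild type and das1Δ backgrounds, two technical replicates each.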

[1] abbreviates: genetic background: das1 deletion.

In the case of RLGDVLRVCCPS [YFL065C C-terminal 12 aa], the protein stability index under setting [1] was 0.627 ± 0.0072 and the protein stability index (genetic background: wild type) stood at 0.668 ± 0.0092.
For RLKLDYSLIFPQ [MEI5 C-terminal 12 aa], in that order: 0.7 ± 0.01 and 0.72 ± 0.038.
The matching figures for “RLLSLAQPPVNF [YER165C-A C-terminal 12 aa]”: 0.7584 ± 0.0037 and 0.703 ± 0.04.
The matching figures for RQCEDTNFGFKI [YDL242W C-terminal 12 aa]: 0.6949 ± 0.0057 and 0.688 ± 0.039.
RQEYKFKKSLLT [YKL131W C-terminal 12 aa]: the protein stability index reads like this: under setting [1], 0.679 ± 0.018; (genetic background: wild type) 0.625 ± 0.012.
In turn, “RQMTSSFFLVFA [YDR118W-A C-terminal 12 aa]” displayed a protein stability index under setting [1] of 0.51187 ± 0.00022 and a protein stability index (genetic background: wild type) of 0.508 ± 0.017.
For RQNTLSLWRYRK [RPL15A C-terminal 12 aa], in that order: 0.682 ± 0.0084 and 0.682 ± 0.039.
On to RQTRNQTKELDS [DPB11 C-terminal 12 aa], for which the protein stability index runs as follows: under setting [1], 0.703 ± 0.033; (genetic background: wild type) 0.691 ± 0.037.
With RRGDMCDVKENI [PUS7 C-terminal 12 aa], the protein stability index reads like this: under setting [1], 0.6678 ± 0.0015; (genetic background: wild type) 0.677 ± 0.031.
For RRHYSNEDSSFL [APC9 C-terminal 12 aa], in that order: 0.7169 ± 0.0022 and 0.689 ± 0.036.
Consider RRPAVIKALRGE [URE2 C-terminal 12 aa], for which the protein stability index runs as follows: under setting [1], 0.6904 ± 0.00095; (genetic background: wild type) 0.693 ± 0.023.
For RRSKKWYSFIFN [SCO2 C-terminal 12 aa], in that order: 0.75 ± 0.018 and 0.731 ± 0.098.
The matching figures for “RRTSSISTYLIL [YBL107W-A C-terminal 12 aa]”: 0.735 ± 0.027 and 0.662 ± 0.043.
For RRVKSLKTSKKH [PAL2 C-terminal 12 aa], in that order: 0.72 ± 0.017 and 0.686 ± 0.0093.
For the sequence RSIKRPELGLRV [STT3 C-terminal 12 aa], the protein stability index under setting [1] amounted to 0.6814 ± 0.0017 and the protein stability index (genetic background: wild type) amounted to 0.6862 ± 0.0065.
For the sequence RSLSSRSKECSK [NOC3 C-terminal 12 aa], the protein stability index turned out to be 0.71 ± 0.0075 under setting [1] and 0.672 ± 0.045 (genetic background: wild type).
For RSTAQRGGYSAV [ATG27 C-terminal 12 aa], in that order: 0.708 ± 0.0086 and 0.679 ± 0.025.
For RVDGKIVVTPQI [RPC53 C-terminal 12 aa], in that order: 0.7011 ± 0.0011 and 0.694 ± 0.012.
The matching figures for RVFEFLEKQKRE [MRPL40 C-terminal 12 aa]: 0.722 ± 0.025 and 0.723 ± 0.028.
Regarding RVVDLIEYVAKA [TDH1 C-terminal 12 aa], the protein stability index reads like this: under setting [1], 0.6636 ± 0.0045; (genetic background: wild type) 0.703 ± 0.055.
RYAKIHEKHVSA [ASN2 C-terminal 12 aa]: the protein stability index by setting is: under setting [1], 0.7157 ± 0.0026; (genetic background: wild type) 0.7183 ± 0.0066.
Regarding “RYFCHLFRCSII [YDL022C-A C-terminal 12 aa]”, the protein stability index reads like this: under setting [1], 0.722 ± 0.04; (genetic background: wild type) 0.654 ± 0.021.
The matching figures for SAITKNLLDDFV [RAV1 C-terminal 12 aa]: 0.735 ± 0.05 and 0.745 ± 0.066.
For SAYMYTKRRFGF [MNR2 C-terminal 12 aa], in that order: 0.712 ± 0.021 and 0.647 ± 0.017.
Consider SDIFSFLDETYE [PHO92 C-terminal 12 aa], for which the protein stability index reads like this: under setting [1], 0.7281 ± 0.007; (genetic background: wild type) 0.718 ± 0.02.
As to SENRFELAYFTS [YLR317W C-terminal 12 aa], the protein stability index runs as follows: under setting [1], 0.728 ± 0.027; (genetic background: wild type) 0.6901 ± 0.0013.
The matching figures for SEPVKQVLDSKE [NMA2 C-terminal 12 aa]: 0.749 ± 0.039 and 0.728 ± 0.078.
Take SFERLLVETIYS [ALG13 C-terminal 12 aa]: the protein stability index was determined as 0.5878 ± 0.0031 under setting [1] and 0.624 ± 0.01 (genetic background: wild type).
In the case of SFLFGLYLLLHP [SPR2 C-terminal 12 aa], the protein stability index was 0.4995 ± 0.0033 under setting [1] and 0.484 ± 0.014 (genetic background: wild type).
For SFSDLTLHAIEY [BER1 C-terminal 12 aa], in that order: 0.724 ± 0.031 and 0.69 ± 0.019.
The matching figures for SFTDVLGQEQFI [YLR252W C-terminal 12 aa]: 0.7269 ± 0.0054 and 0.699 ± 0.031.
For SGKFNGKKKSRR [FAF1 C-terminal 12 aa], in that order: 0.693 ± 0.029 and 0.666 ± 0.018.
Consider SHMILYQQQECY [YER181C C-terminal 12 aa], for which the protein stability index worked out at 0.451 ± 0.0097 under setting [1] and 0.46 ± 0.011 (genetic background: wild type).
For SHPSFKQLLIQK [MLO1 C-terminal 12 aa], in that order: 0.677 ± 0.031 and 0.73 ± 0.025.
For “SIFSYCIIYFIS [YDR524C-A C-terminal 12 aa]”, in that order: 0.222 ± 0.013 and 0.111 ± 0.02.
With SIICIETNKAIR [HPM1 C-terminal 12 aa], the protein stability index is, setting by setting: under setting [1], 0.705 ± 0.016; (genetic background: wild type) 0.757 ± 0.099.
As for SIIFLLLSYLLF [SAG1 C-terminal 12 aa], the protein stability index under setting [1] stood at 0.392 ± 0.042 and the protein stability index (genetic background: wild type) was 0.381 ± 0.0067.
Turning to SIINPSSNGCNK [YNL235C C-terminal 12 aa], the protein stability index reads like this: under setting [1], 0.702 ± 0.028; (genetic background: wild type) 0.615 ± 0.018.
In the case of SILGMQDMWKAT [PEX11 C-terminal 12 aa], the protein stability index reads like this: under setting [1], 0.707 ± 0.017; (genetic background: wild type) 0.713 ± 0.022.
Consider SILTHSTSPDSR [HYM1 C-terminal 12 aa], for which the protein stability index under setting [1] stood at 0.727 ± 0.033 and the protein stability index (genetic background: wild type) amounted to 0.718 ± 0.076.
The matching figures for SITLDDLENIFN [GDS1 C-terminal 12 aa]: 0.735 ± 0.026 and 0.711 ± 0.021.
On to SKSGSGGCCIIS [RAS2 C-terminal 12 aa], for which the protein stability index came out at 0.736 ± 0.0091 under setting [1] and 0.711 ± 0.011 (genetic background: wild type).
The matching figures for SLIPRFDNLLSK [GGC1 C-terminal 12 aa]: 0.7062 ± 0.0052 and 0.732 ± 0.015.
For SLLLEKLDPEIE [UBX5 C-terminal 12 aa], in that order: 0.731 ± 0.056 and 0.716 ± 0.013.
The matching figures for “SLNLILISMTFI [YCR097W-A C-terminal 12 aa]”: 0.429 ± 0.0075 and 0.449 ± 0.0049.
Regarding SLSSRGKIFSST [EFR3 C-terminal 12 aa], the protein stability index runs as follows: under setting [1], 0.698 ± 0.01; (genetic background: wild type) 0.657 ± 0.011.
For SNYNNRTTDMPL [PSP2 C-terminal 12 aa], in that order: 0.6781 ± 0.0018 and 0.703 ± 0.1.
The matching figures for SPFIPKKRKPRS [SEN1 C-terminal 12 aa]: 0.6983 ± 0.0065 and 0.704 ± 0.036.
With SPIQLKDLESQI [SYS1 C-terminal 12 aa], the protein stability index turned out to be 0.677 ± 0.019 under setting [1] and 0.717 ± 0.0082 (genetic background: wild type).
For SQAIPKKKKVLE [MEK1 C-terminal 12 aa], in that order: 0.6937 ± 0.0011 and 0.6887 ± 0.0063.

For the origin of these results see the supplement of paper PMC10724198.
